Here are results for two molecules from patent US20200339702A1 (ULTRAHUMAN THIRTEEN, published 2020).

The target of experiment [1] is T1, human ERBB3 human Fc tagged recombinant protein (human, UniProt P21860 20-643).
T1 construct: also called human ERBB3-Fc; huERBB3
The experiment is described as follows: direct binding ELISA on coated human ERBB3-Fc, IgG1null titrated. Here is the method: (§1) Binding and cross-reactivity of the lead panel to the recombinant proteins was initially assessed by binding ELISA. The human ERBB3 human Fc tagged recombinant protein and the rhesus monkey ERBB3 human Fc tagged recombinant protein were coated to the surface of MaxiSorp™ flat-bottom 96 well plate at 1 μg/ml. The purified IgG samples were titrated in two fold serial dilutions starting from 500 nM to 0.008 nM and allowed to bind to the coated antigens. The Fabs were detected using mouse anti-c-myc antibody followed by donkey anti-mouse IgG conjugated to horseradish peroxidase. The IgGs were detected using the mouse anti-human IgG conjugated to horseradish peroxidase. Binding signals were visualized with 3,3′,5,5′-Tetramethylbenzidine Substrate Solution (TMB) and the absorbance measured at 450 nm.
For orientation: In an ELISA, binding on a coated surface is turned into a signal by an enzyme label.

For experiment [2], the target named is T2, human ERBB3 His tagged, monomeric (human, UniProt P21860 20-643, biotinylated in the Alphascreen assays (sites not given)).
T2 construct: Used unbiotinylated as Biacore analyte and biotinylated in Alphascreen; treated as one molecule; also called human ERBB3-His (Acrobiosystems); biotinylated monomeric human ERBB3
Nature of the experiment: SPR (Biacore), captured IgG, monomeric ERBB3-His analyte. For orientation: Surface plasmon resonance follows binding to a sensor surface in real time, without labels.

The target in experiment [3] is T3, human ERBB3 on transiently transfected HEK-293 cells (human, UniProt P21860 20-1342).
T3 construct: also called human ERBB3+ HEK-293 cells
The experiment is described as follows: flow cytometry, human ERBB3-transfected HEK-293. In short, it runs like this:
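Purified IgGs in IgG1null format were titrated threefold from 500 nM to 0.008 nM on HEK-293 cells transiently transfected with full-length human or rhesus ERBB3, with wild-type HEK-293 as comparison. Binding was detected with FITC anti-human IgG and read as mean fluorescence intensity of 10000 cells by flow cytometry.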
Background: In flow cytometry, cells or beads pass a laser one at a time.

In experiment [4] the target is T4, rhesus monkey ERBB3 human Fc tagged recombinant protein (rhesus monkey (Macaca mulatta), UniProt P21860 20-643 (human entry), limits assumed).
T4 construct: also called rhesus ERBB3-Fc; rhERBB3
T4 chain: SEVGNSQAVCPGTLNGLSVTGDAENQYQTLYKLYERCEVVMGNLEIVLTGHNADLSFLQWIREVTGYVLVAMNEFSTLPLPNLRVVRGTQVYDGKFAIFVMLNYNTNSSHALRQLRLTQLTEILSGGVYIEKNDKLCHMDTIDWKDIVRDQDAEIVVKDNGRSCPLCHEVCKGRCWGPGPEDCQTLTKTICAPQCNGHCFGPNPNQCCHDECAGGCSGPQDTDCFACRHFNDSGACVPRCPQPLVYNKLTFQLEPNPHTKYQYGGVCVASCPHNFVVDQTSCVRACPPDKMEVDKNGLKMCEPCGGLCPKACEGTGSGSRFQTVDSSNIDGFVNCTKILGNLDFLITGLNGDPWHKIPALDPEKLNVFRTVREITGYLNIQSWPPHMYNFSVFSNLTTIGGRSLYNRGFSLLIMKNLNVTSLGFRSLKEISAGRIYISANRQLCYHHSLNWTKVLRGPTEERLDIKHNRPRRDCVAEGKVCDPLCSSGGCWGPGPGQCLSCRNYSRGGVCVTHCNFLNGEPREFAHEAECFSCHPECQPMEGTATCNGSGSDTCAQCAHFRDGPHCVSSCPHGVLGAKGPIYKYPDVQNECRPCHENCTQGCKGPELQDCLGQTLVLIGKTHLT
Nature of the experiment: direct binding ELISA on coated rhesus ERBB3-Fc, IgG1null titrated. Here is the method:
as §1

B1: 09D12 IgG1null (antibody, V domains shown)
VH: QVQLVESGGGLVKPGGSLRLSCAASGFTFSDYGMSWIRQAPGKGLEWVSTISDGGSYTYYADSVKGRFTISRDNAKNSLYLQMNSLRAEDTAVYYCAREYGDYDGFDYWGQGTLVTVSS
VL: DIQMTQSPSSLSASVGDRVTITCRASQSISSYLNWYQQKPGKAPKLLIYAASSLDSGVPSRFSGSGSGTDFTLTISSLQPEDFATYYCLQYDSTPLTFGGGTKVEIK
notes: Human IgG1null and human Ckappa
For B1, the EC50 (read off the curve) (usually the concentration that produces a half-maximal response) in experiment [1] is roughly 0.2 nM. In experiment [2], the Kd (usually the equilibrium constant for the complex coming apart) is 0.27 nM; the koff (in general, the rate constant with which the complex falls apart) was 0.0035 s⁻¹; the association rate constant (kon) (commonly the second-order rate constant of association) was 1.3e+07 M⁻¹ s⁻¹. Further, the “maximum MFI, fold over isotype control background” value in experiment [3] is greater than 20 fold. In addition, the half-maximal effective concentration (EC50 (read off the curve)) in experiment [4] is roughly 0.1 nM.

B2: TTP IgG1null (antibody, V domains shown)
VH: QVQLVESGGGLVKPGGSLRLSCAASGFTFSDYGMSWIRQAPGKGLEWVSTISDSGSTIYYADSVKGRFTISRDNAKNSLYLQMNSLRAEDTAVYYCAREYGDYDGFDYWGQGTLVTVSS
VL: DIQMTQSPSSLSASVGDRVTITCRASQSISSYLNWYQQKPGKAPKLLIYAASSLQSGVPSRFSGSGSGTDFTLTISSLQPEDFATYYCLQYDSTPLTFGGGTKVEIK
notes: Designer clone; Human IgG1null and human Ckappa; also called Total Theoretically Possible clone
Take B2: the “EC50 (read off the curve)” value in experiment [1] was roughly 0.3 nM. In experiment [2], the Kd stood at 1.2 nM, the koff stood at 0.073 s⁻¹ and the kon amounted to 6.2e+07 M⁻¹ s⁻¹. Moreover, the “maximum MFI, fold over isotype control background” value in experiment [3] is greater than 20 fold. In addition, the 50% effective concentration (EC50 (read off the curve)) in experiment [4] is roughly 0.2 nM.
